Data as given in PMC11832770, “NADH-bound AIF activates the mitochondrial CHCHD4/MIA40 chaperone by a substrate-mimicry mechanism” (The EMBO Journal, 2025).

B1: Atto488-CHCHD4 (natural protein, human, UniProt Q8N4Q1 1-142, looked up)
chain: MSYCRQEGKDRIIFVTKEDHETPSSAELVADDPNDPYEEHGLILPNGNINWNCPCLGGMASGPCGEQFKSAFSCFHYSTEEIKGSDCVDQFRAMQECMQKYPDLYPQEDEDEEEEREKKPAEQAEETAPIEATATKEEEGSS
modifications: ATTO 488 (NHS ester) on the N-terminus
notes: not shown: GB1-6X-His, N-terminal, cleaved
B2: AIF-ΔC-loop (domain or fragment)
chain: VGAGAYAYKTMKEDEKRYNERISGLGLTPEQKQKKAALSASEGEEVPQDKAPSHVPFLLIGGGTAAFAAARSIRARDPGARVLIVSEDPELPYMRPPLSKELWFSDDPNVTKTLRFKQWNGKERSIYFQPPSFYVSAQDLPHIENGGVAVLTGKKVVQLDVRDNMVKLNDGSQITYEKCLIATGGTPRSLSAIDRAGAEVKSRTTLFRKIGDFRSLEKISREVKSITIIGGGFLGSELACALGRKARALGTEVIQLFPEKGNMGKILPEYLSNWTMEKVRREGVKVMPNAIVQSVGVSSGKLLIKLKDGRKVETDHIVAAVGLEPNVELAKTGGLEIDSDFGGFRVNAELQARSNIWVAGDAACFYDIKLGRRRVEHHDHAVVSGRLAGENMTGAAKPYWHQSMFWSDLGPDVGYEAIGLVDSSLPTVGVFYGKGVIFYLRDKVVVGIVLWNIFNRMPIARKIIKDGEQHEDLNEVAKLFNIHED

Tests used:
Conditions in all cases: both partners purified
AIF(78-613), wild type = molecular target: T1, AIF(78-613), wild type (human, UniProt O95831 78-613); assay: MST; wild-type AIF titrated (1.8 nM–30 µM) into 100 nM Atto488-CHCHD4 with 300 µM NADH; 25 mM HEPES pH 7.5, 150 mM NaCl, 0.01% Tween-20, 5 mM TCEP; 25 °C
T1 construct: Apoptosis-inducing factor (AIF), human, residues 78-613, lacking the inner mitochondrial membrane tether; Construct from Brosey et al 2016; also called Apoptosis-inducing factor; AIF + NADH; source: E. coli Rosetta2(DE3), purified (Ni-NTA, PreScission cleavage, subtractive Ni-NTA, Superdex 200)

AIF-W196A = molecular target: T2, AIF-W196A (human, UniProt O95831 78-613, W196A); assay: MST; AIF allostery mutants titrated (1.8 nM–30 µM) into 100 nM Atto488-CHCHD4 without NADH; 25 mM HEPES pH 7.5, 150 mM NaCl, 0.01% Tween-20, 5 mM TCEP; 25 °C
T2 construct: Apoptosis-inducing factor (AIF), human, allostery mutant lacking the inner mitochondrial membrane tether; limits read as those of the wild type, 78-613; source: E. coli Rosetta2(DE3), purified (Ni-NTA, PreScission cleavage, subtractive Ni-NTA, Superdex 200)

AIF-R529A = molecular target: T3, AIF-R529A (human, UniProt O95831 78-613, R529A); assay: as above
T3 construct: Apoptosis-inducing factor (AIF), human, allostery mutant lacking the inner mitochondrial membrane tether; limits read as those of the wild type, 78-613; source: E. coli Rosetta2(DE3), purified (Ni-NTA, PreScission cleavage, subtractive Ni-NTA, Superdex 200)

Atto488-CHCHD4 = molecular target: B1; assay: as above

Row | Binder | Kd (AIF(78-613), wild type) | Kd (AIF-W196A) | Kd (AIF-R529A) | Kd (Atto488-CHCHD4)
1 | B1 | 340 nM | 2200 nM | 2500 nM | 
2 | B2 |  |  |  | 4000 nM
